Test results as given in patent US20170166655A1 (published 2017).
Where two headings read alike, the source gives them in different places.

T1: human FcγRIIb, extracellular region (human, UniProt P31994 43-217)
T1 chain: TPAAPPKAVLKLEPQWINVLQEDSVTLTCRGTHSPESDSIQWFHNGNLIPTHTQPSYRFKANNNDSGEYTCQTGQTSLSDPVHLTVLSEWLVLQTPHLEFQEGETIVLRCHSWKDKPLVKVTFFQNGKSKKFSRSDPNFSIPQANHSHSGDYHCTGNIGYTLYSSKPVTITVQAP

T2: human R131 FcγRIIa, extracellular region (human, UniProt P12318 34-217)
T2 chain: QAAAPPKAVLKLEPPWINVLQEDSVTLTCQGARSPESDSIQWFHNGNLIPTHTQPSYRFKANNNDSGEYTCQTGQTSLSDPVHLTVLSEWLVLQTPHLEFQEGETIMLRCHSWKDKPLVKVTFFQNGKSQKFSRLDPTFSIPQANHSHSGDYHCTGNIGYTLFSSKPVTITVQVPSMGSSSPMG

T3: human FcγRI, extracellular region (human, UniProt P12314 16-292)
T3 chain: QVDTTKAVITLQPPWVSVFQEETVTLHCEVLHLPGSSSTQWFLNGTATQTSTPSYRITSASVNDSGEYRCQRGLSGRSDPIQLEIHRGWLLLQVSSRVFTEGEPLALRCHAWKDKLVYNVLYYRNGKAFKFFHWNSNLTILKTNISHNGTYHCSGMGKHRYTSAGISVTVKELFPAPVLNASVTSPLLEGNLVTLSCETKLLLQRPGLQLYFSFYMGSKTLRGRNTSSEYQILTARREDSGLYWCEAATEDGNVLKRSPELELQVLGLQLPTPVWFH

T4: human H131 FcγRIIa, extracellular region (human, UniProt P12318 34-217)
T4 chain: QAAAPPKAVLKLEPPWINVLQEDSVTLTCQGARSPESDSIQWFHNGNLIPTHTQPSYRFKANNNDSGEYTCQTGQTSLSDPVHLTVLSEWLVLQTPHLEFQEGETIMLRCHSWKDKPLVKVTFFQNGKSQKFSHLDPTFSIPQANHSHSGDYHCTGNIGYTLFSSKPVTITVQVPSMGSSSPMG


What was measured:
Assay in all cases: SPR
[1] = target: human V158 FcγRIIIa, extracellular region (human, UniProt P08637 17-208)
human V158 FcγRIIIa, extracellular region, sequence (P08637 17-208 F176V): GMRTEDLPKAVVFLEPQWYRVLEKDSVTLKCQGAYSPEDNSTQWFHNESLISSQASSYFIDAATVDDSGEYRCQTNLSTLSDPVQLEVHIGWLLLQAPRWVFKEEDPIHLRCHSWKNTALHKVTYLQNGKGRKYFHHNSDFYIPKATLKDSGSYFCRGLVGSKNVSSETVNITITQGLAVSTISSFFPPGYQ

[2] = target: T1, human FcγRIIb, extracellular region
[3] = target: T2, human R131 FcγRIIa, extracellular region
[4] = target: human F158 FcγRIIIa, extracellular region (human, UniProt P08637 17-208)
human F158 FcγRIIIa, extracellular region, sequence (P08637 17-208): as the sequence (P08637 17-208 F176V) above, with V160F counted along it

[5] = target: T3, human FcγRI, extracellular region
[6] = target: T4, human H131 FcγRIIa, extracellular region
[7] = target: T2, human R131 FcγRIIa, extracellular region
[8] = target: T4, human H131 FcγRIIa, extracellular region

Row | Binder | Kd [1] [nM] | Kd [2] [nM] | Kd [3] [nM] | Kd [4] [nM] | Kd [5] [nM] | Kd [6] [nM] | Kd [7] [nM] | Kd [8] [nM]
1 | IgG2_S239D/I332E/G327A (antibody) ASTKGPSVFPLAPCSRSTSESTAALGCLVKDYFPEPVTVSWNSGALTSGVHTFPAVLQSSGLYSLSSVVTVPSSNFGTQTYTCNVDHKPSNTKVDKTVERKCCVECPPCPAPPVAGPDVFLFPPKPKDTLMISRTPEVTCVVVDVSHEDPEVQFNWYVDGVEVHNAKTKPREEQFNSTFRVVSVLTVVHQDWLNGKEYKCKVSNKALPAPEEKTISKTKGQPREPQVYTLPPSREEMTKNQVSLTCLVKGFYPSDIAVEWESNGQPENNYKTTPPMLDSDGSFFLYSKLTVDKSRWQQGNVFSCSVMHEALHNHYTQKSLSLSPGK | 19.4 | 232 | 161 | 36.3 | 13.2 | 122 |  | 
2 | WT IgG2 (antibody) ASTKGPSVFPLAPCSRSTSESTAALGCLVKDYFPEPVTVSWNSGALTSGVHTFPAVLQSSGLYSLSSVVTVPSSNFGTQTYTCNVDHKPSNTKVDKTVERKCCVECPPCPAPPVAGPSVFLFPPKPKDTLMISRTPEVTCVVVDVSHEDPEVQFNWYVDGVEVHNAKTKPREEQFNSTFRVVSVLTVVHQDWLNGKEYKCKVSNKGLPAPIEKTISKTKGQPREPQVYTLPPSREEMTKNQVSLTCLVKGFYPSDIAVEWESNGQPENNYKTTPPMLDSDGSFFLYSKLTVDKSRWQQGNVFSCSVMHEALHNHYTQKSLSLSPGK |  |  |  |  |  |  | 4270 | 525

Further binders by falling Kd [3], results first:

Row | Kd [1] [nM] | Kd [2] [nM] | Kd [3] [nM] | Kd [4] [nM] | Kd [5] [nM] | Kd [6] [nM] | Kd [7] [nM] | Kd [8] [nM] | Binder
3 |  |  | 4270 |  |  | 525 |  |  | IgG2 WT (antibody) ASTKGPSVFPLAPCSRSTSESTAALGCLVKDYFPEPVTVSWNSGALTSGVHTFPAVLQSSGLYSLSSVVTVPSSNFGTQTYTCNVDHKPSNTKVDKTVERKCCVECPPCPAPPVAGPSVFLFPPKPKDTLMISRTPEVTCVVVDVSHEDPEVQFNWYVDGVEVHNAKTKPREEQFNSTFRVVSVLTVVHQDWLNGKEYKCKVSNKGLPAPIEKTISKTKGQPREPQVYTLPPSREEMTKNQVSLTCLVKGFYPSDIAVEWESNGQPENNYKTTPPMLDSDGSFFLYSKLTVDKSRWQQGNVFSCSVMHEALHNHYTQKSLSLSPGK
4 | 30.3 | 682 | 128 | 81.7 | 24.2 | 160 |  |  | IgG2_S239D/I332E (antibody) ASTKGPSVFPLAPCSRSTSESTAALGCLVKDYFPEPVTVSWNSGALTSGVHTFPAVLQSSGLYSLSSVVTVPSSNFGTQTYTCNVDHKPSNTKVDKTVERKCCVECPPCPAPPVAGPDVFLFPPKPKDTLMISRTPEVTCVVVDVSHEDPEVQFNWYVDGVEVHNAKTKPREEQFNSTFRVVSVLTVVHQDWLNGKEYKCKVSNKGLPAPEEKTISKTKGQPREPQVYTLPPSREEMTKNQVSLTCLVKGFYPSDIAVEWESNGQPENNYKTTPPMLDSDGSFFLYSKLTVDKSRWQQGNVFSCSVMHEALHNHYTQKSLSLSPGK
